B1: MP1 monoclonal antibody (antibody, V domains shown)
VH: EVKVDETGGGLVQPGRPMKLSCVVSGITFSDYWMNWVRQSPEKGLEWVAQIRNKPYNYETYYSNSVKGRFTISRDDSKSSVYLQMNNLRAEDMGIYYCTWAMITSDGYAMDYWGQGTSVTVSS
VL: DIVMSQSPSSLAVSVGEKVTLICKSSQSLLLSSNQKNYLAWYQQKPGQSPKLLIYWASTRESGVPDRFTGSGSGTDFTLTINSVKAEDLAVYYCQQCFSYPLTFGAGTKLELK
notes: also called mouse antibody MP1; MP1 Ab
B2: humanized MP1 antibody VH8/VL2 (antibody, V domains shown)
VH: QVQLVESGGGVVQPGRSLRLSCAASGITFSSYWMNWVRQAPGKGLEWVAQIRNKPYNYEKYYAQSVKGRFTISRDDSKSTLYLQMSSLRAEDTAVYYCAWAMITSDGYAMDYWGQGTLVTVSS
VL: DIVMTQSPDSLAVSLGERATISCKSSQSVLLSSNQKNYLAWYQQKPGQPPKLLIYWASTRESGVPDRFSGSGSGTEFTLTISSLQAEDVAVYYCQQSFSYPLTFGQGTKLEIK
notes: tested as ExpiCHO-S culture solution
B3: humanized MP1 antibody VH1/VL1 (antibody, V domains shown)
VH: EVKVVESGGGLVQPGRSLRLSCTASGITFSDYWMNWVRQAPGKGLEWVGQIRNKPYNYETYYSQSVKGRFTISRDDSKSIAYLQMSSLKTEDTAVYYCTWAMITSDGYAMDYWGQGTLVTVSS
VL: B2 VL with V29L, L84V, S97C
notes: as for B2
B4: humanized MP1 antibody VH8/VL8 (antibody, V domains shown)
VH: B2 VH
VL: DIVMTQSPLSLPVTPGEPASISCRSSQSLLLSSNQKNYLAWYLQKPGQSPQLLIYWGSTRESGVPDRFSGSGSGTDFTLKISRVEAEDVGVYYCQQSFSYPLTFGQGTKLEIK
notes: as for B2
B5: humanized MP1 antibody VH4/VL2 (antibody, V domains shown)
VH: B3 VH with R16G, T23A, G49A, Q64N, S77A, I80S, A81V, K89R, T90A
VL: B2 VL
notes: as for B2
B6: humanized MP1 antibody VH7/VL5 (antibody, V domains shown)
VH: B2 VH with Q3K, L4V, S31D, K60T, A63S, Q64N, L81V, A99T
VL: EIVLTQSPGTLSLSPGERATLSCRASQSVLLSSNQKNYLAWYQQKPGQAPRLLIYWASSRETGIPDRFSGSGSGTDFTLTISRLEPEDFAVYYCQQSFSYPLTFGQGTKLEIK
notes: as for B2
B7: humanized MP1 antibody VH8/VL4 (antibody, V domains shown)
VH: B2 VH
VL: B6 VL with L4M, A25S, V29L, S59T, T62S, L84V, S97C
notes: as for B2
B8: humanized MP1 antibody VH1/VL2 (antibody, V domains shown)
VH: B3 VH
VL: B2 VL
notes: as for B2
B9: humanized MP1 antibody VH8/VL1 (antibody, V domains shown)
VH: B2 VH
VL: B2 VL with V29L, L84V, S97C
notes: as for B2
B10: humanized MP1 antibody VH8/VL3 (antibody, V domains shown)
VH: B2 VH
VL: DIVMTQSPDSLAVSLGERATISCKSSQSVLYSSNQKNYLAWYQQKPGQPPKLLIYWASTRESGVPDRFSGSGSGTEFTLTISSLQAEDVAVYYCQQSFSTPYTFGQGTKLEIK
notes: as for B2
B11: humanized MP1 antibody VH8/VL5 (antibody, V domains shown)
VH: B2 VH
VL: B6 VL
notes: as for B2
B12: humanized MP1 antibody VH4/VL4 (antibody, V domains shown)
VH: B3 VH with R16G, T23A, G49A, Q64N, S77A, I80S, A81V, K89R, T90A
VL: B6 VL with L4M, A25S, V29L, S59T, T62S, L84V, S97C
notes: as for B2
B13: humanized MP1 antibody VH9/VL2 (antibody, V domains shown)
VH: B2 VH with I27F, N35H, Q50V, N53Y, N57G, Y58S, M110F
VL: B2 VL
notes: as for B2
B14: humanized MP1 antibody VH4/VL5 (antibody, V domains shown)
VH: B3 VH with R16G, T23A, G49A, Q64N, S77A, I80S, A81V, K89R, T90A
VL: B6 VL
notes: as for B2
B15: humanized MP1 antibody VH1/VL5 (antibody, V domains shown)
VH: B3 VH
VL: B6 VL
notes: as for B2
B16: humanized MP1 antibody VH7/VL4 (antibody, V domains shown)
VH: B2 VH with Q3K, L4V, S31D, K60T, A63S, Q64N, L81V, A99T
VL: B6 VL with L4M, A25S, V29L, S59T, T62S, L84V, S97C
notes: as for B2
B17: humanized MP1 antibody VH8/VL6 (antibody, V domains shown)
VH: B2 VH
VL: B6 VL with N34S, E61A, Y100S, L102Y
notes: as for B2
B18: humanized MP1 antibody VH7/VL3 (antibody, V domains shown)
VH: B2 VH with Q3K, L4V, S31D, K60T, A63S, Q64N, L81V, A99T
VL: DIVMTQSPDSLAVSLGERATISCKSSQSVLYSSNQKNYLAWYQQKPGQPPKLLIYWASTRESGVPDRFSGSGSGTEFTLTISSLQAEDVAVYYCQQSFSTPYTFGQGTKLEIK
notes: as for B2
B19: humanized MP1 antibody VH1/VL4 (antibody, V domains shown)
VH: B3 VH
VL: B6 VL with L4M, A25S, V29L, S59T, T62S, L84V, S97C
notes: as for B2
B20: humanized MP1 antibody VH4/VL8 (antibody, V domains shown)
VH: B3 VH with R16G, T23A, G49A, Q64N, S77A, I80S, A81V, K89R, T90A
VL: B4 VL
notes: as for B2
B21: humanized MP1 antibody VH4/VL7 (antibody, V domains shown)
VH: B3 VH with R16G, T23A, G49A, Q64N, S77A, I80S, A81V, K89R, T90A
VL: B4 VL with G57A, S97C
notes: as for B2

Substitutions are numbered along the chain they refer to.

The target of the first assay is T1, MUC1 (Mucin-1) as expressed by human cancer cell lines (human, UniProt P15941 24-1255).
T1 construct: whole, on cells; Endogenous antigen on the cell surface (flow cytometry) or in cell lysates (immunoprecipitation, western blot); also called MUC1 antigen; antigen recognized by the MP1 monoclonal antibody
T1 sequence (P15941 24-1255): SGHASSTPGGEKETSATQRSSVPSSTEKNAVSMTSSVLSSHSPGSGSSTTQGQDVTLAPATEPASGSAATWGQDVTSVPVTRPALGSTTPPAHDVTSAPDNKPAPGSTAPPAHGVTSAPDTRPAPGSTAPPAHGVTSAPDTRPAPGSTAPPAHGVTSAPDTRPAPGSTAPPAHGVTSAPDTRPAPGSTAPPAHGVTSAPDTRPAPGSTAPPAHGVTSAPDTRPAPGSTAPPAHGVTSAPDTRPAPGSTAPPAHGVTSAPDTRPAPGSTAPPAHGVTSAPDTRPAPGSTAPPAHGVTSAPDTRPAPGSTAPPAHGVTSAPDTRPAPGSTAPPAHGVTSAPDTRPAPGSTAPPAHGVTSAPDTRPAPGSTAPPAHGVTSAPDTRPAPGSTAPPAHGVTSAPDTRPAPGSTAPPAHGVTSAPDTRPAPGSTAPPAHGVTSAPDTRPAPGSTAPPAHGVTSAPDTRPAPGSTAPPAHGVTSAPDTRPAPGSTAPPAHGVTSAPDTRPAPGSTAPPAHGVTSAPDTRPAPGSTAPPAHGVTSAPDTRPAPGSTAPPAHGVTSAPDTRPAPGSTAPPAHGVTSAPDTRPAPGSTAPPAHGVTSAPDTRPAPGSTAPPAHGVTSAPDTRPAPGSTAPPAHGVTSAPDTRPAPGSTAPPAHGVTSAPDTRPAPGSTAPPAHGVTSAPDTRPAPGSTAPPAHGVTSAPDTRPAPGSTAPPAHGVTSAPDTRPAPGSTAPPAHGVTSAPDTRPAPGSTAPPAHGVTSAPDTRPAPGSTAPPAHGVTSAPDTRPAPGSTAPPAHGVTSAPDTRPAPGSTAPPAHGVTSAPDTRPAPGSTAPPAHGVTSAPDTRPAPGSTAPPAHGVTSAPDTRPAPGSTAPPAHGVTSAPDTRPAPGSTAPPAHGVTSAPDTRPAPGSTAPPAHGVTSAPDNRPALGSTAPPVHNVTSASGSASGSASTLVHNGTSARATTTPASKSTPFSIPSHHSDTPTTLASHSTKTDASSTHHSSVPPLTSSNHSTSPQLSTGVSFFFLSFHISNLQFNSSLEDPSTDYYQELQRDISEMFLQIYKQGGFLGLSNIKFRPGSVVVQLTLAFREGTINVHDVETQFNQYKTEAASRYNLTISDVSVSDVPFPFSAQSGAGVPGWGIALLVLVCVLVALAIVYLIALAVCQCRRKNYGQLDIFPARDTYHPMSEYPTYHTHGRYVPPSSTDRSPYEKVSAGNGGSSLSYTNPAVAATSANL
The assay can be described thus: flow cytometry, SiHa cells; grade = percent MP1 positive cells (+: 20-30%). On the procedure: The MP1 monoclonal antibody of the present invention was added to the cultured various cancer cells, respectively, and they were reacted at 4° C. for 30 minutes and then washed with PBS, and FITC-conjugated goat anti mouse IgG (Jackson ImmunoResearch, USA) was added and they were cultured at 4° C. for 15 minutes. They were washed with PBS again, and then were analyzed with FACS caliber (Becton Dickinson, USA) to confirm the reactivity of the MP1 antibody in various solid cancer cell lines (Table 9).
Background: A flow cytometer gives signals particle by particle.
For the molecule B1, the binding result is listed as “binds”.

The target in the next assay is T1, MUC1 (Mucin-1) as expressed by human …. Nature of the assay: flow cytometry, Capan-2 cells stained with transient-expression culture solution; positive rate against the negative control.
As to B2, the “Capan-2 cell surface binding (%)” value stood at 11.4%.
The same measure, in the same setting: the result for B3 reads 7.95%; that for B4, 7.16%; that for B5, 7.2%.
The same measure, in the same setting: the result for B6 reads 10.2%.
On the same count and under the same terms, with B7 the figure was 15.6%; with B8, 13.5%.
B9: the “Capan-2 cell surface binding (%)” value is 6.65%.
Same read-out and setting: with B10 the figure was 28.5%.
On the same count and under the same terms, the result for B11 reads 6.61%; that for B12, 18.1%.
Take B13: the “Capan-2 cell surface binding (%)” value came to 7.04%.
In the case of B14, the “Capan-2 cell surface binding (%)” value was 16.9%.
Still for that read-out and setting: with B15 the figure was 27.2%; with B16, 12.7%.
Consider B17, for which the “Capan-2 cell surface binding (%)” value is 9.97%.
With B18, the “Capan-2 cell surface binding (%)” value stood at 11.5%.
Regarding B19, the “Capan-2 cell surface binding (%)” value was 15.8%.
B20: the “Capan-2 cell surface binding (%)” value was found to be 11.4%.
Regarding B21, the “Capan-2 cell surface binding (%)” value stood at 11%.

(Values after patent US20250101127A1 (CYRON THERAPEUTICS, published 2025).)
